According to patent US20160060307A1 (KYUNGPOOK NATIONAL UNIVERSITY INDUSTRY ACADEMIC COOPERATION …, published 2016):

T1: IL-4 receptor protein immobilised on carboxymethyl dextran chip (SPR) (Homo sapiens (Human), UniProt P24394 26-232)
T1 construct: Soluble protein coupled to the chip by EDC/NHS
T1 sequence: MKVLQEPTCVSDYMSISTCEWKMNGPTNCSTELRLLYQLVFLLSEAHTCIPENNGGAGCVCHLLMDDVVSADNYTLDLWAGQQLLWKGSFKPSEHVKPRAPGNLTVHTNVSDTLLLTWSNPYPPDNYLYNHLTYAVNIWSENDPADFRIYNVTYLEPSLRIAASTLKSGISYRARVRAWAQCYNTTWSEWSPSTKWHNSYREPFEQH


Tests used:
[1] = target: T1, IL-4 receptor protein immobilised on …; experiment: SPR, IL-4 receptor immobilised
Protocol: (§1) Here, the right channel was used as a reference channel. In the two channels, left channel and right channel, 1M ethanolamine (pH 8.5) solution was allowed to flow over the unreacted surface for 7 min for blocking, so as to reduce non-specific adsorption thereof. All test procedures were conducted at a temperature of 25° C. and the flow rate was 25 ul/min.

[2] = target: T1, IL-4 receptor protein immobilised on …; experiment: SPR, IL-4 receptor immobilised, equilibrium fit
Protocol: as §1
The buffer (20 mM Tris-HCl pH 8.0, 150 mM NaCl, 180 mM Histidine, 62.5 ug/ml BSA, 0.005% Tween 20) was used through filtering and degassing. […] For regeneration, 2 M NaCl was allowed to flow over for 1 h to wash the proteins remaining without dissociation.
In the binding graph, the RU value expressing the amount of bound protein was measured by subtracting the blank (buffer) value and reference channel (right channel) value, using Scrubber software. The KD value was obtained from the binding RU (Req) values measured at the respective concentrations using KaleidaGraph software.

Row | Binder | Kd [1] [nM] | koff [1] [s⁻¹] | kon [1] [M⁻¹ s⁻¹] | Kd [2] [nM] | fold enhancement of binding affinity against FTL-AP1 [1] [times]
1 | FTL-GG-AP1S: ferritin having AP1S inserted in GG cassette (human ferritin light chain, fourth loop) (designed binder, One monomer is given; it assembles into a 24-mer ferritin cage., It forms a ferritin-like cage (24-mer); also called FTL-AP1; not shown: His tag from the pET28a(+) vector (Ni-NTA purification, anti-His probe)) MSSQIRQNYSTDVEAAVNSLVNLYLQASYTYLSLGFYFDRDDVALEGVSHFFRELAEEKREGYERLLKMQNQRGGRALFQDIKKPAEDEWGKTPDAMKAAMALEKKLNQALLDLHALGSARTDPHLCDFLETHFLDEEVKLIKKMGDHLTNLHRGSRKRLDRNGGPEAGLGEYLFERLTLKHD | 0.443 | 0.00125 | 1.22e+06 | 1.19 | –
2 | FTL-GP-AP1S: ferritin having AP1S inserted in GP cassette (human ferritin light chain, fourth loop) (designed binder, One monomer is given; it assembles into a 24-mer ferritin cage., pET28a(+) expression with Ni-NTA purification (His tag); Cage-forming; not shown: His tag from the pET28a(+) vector (Ni-NTA purification, anti-His probe)) MSSQIRQNYSTDVEAAVNSLVNLYLQASYTYLSLGFYFDRDDVALEGVSHFFRELAEEKREGYERLLKMQNQRGGRALFQDIKKPAEDEWGKTPDAMKAAMALEKKLNQALLDLHALGSARTDPHLCDFLETHFLDEEVKLIKKMGDHLTNLHRLGSRKRLDRNGPEAGLGEYLFERLTLKHD | – | – | – | 4.29 | –
3 | FTL-GG-AP1L: ferritin having AP1L inserted in GG cassette (human ferritin light chain, fourth loop) (designed binder, One monomer is given; it assembles into a 24-mer ferritin cage., pET28a(+) expression with Ni-NTA purification (His tag); Cage-forming; also called 157cysAP1-PBNC; not shown: His tag from the pET28a(+) vector (Ni-NTA purification, anti-His probe)) MSSQIRQNYSTDVEAAVNSLVNLYLQASYTYLSLGFYFDRDDVALEGVSHFFRELAEEKREGYERLLKMQNQRGGRALFQDIKKPAEDEWGKTPDAMKAAMALEKKLNQALLDLHALGSARTDPHLCDFLETHFLDEEVKLIKKMGDHLTNLHRGSCRKRLDRNCGGPEAGLGEYLFERLTLKHD | – | – | – | 25.9 | –
4 | FTL-GP-AP1L: ferritin having AP1L inserted in GP cassette (human ferritin light chain, fourth loop) (designed binder, One monomer is given; it assembles into a 24-mer ferritin cage., pET28a(+) expression with Ni-NTA purification (His tag); Cage-forming; not shown: His tag from the pET28a(+) vector (Ni-NTA purification, anti-His probe)) MSSQIRQNYSTDVEAAVNSLVNLYLQASYTYLSLGFYFDRDDVALEGVSHFFRELAEEKREGYERLLKMQNQRGGRALFQDIKKPAEDEWGKTPDAMKAAMALEKKLNQALLDLHALGSARTDPHLCDFLETHFLDEEVKLIKKMGDHLTNLHRLGSCRKRLDRNCGPEAGLGEYLFERLTLKHD | – | – | – | 9.9 | –
5 | FTL-AP1_AP1: fusion polypeptide in which AP1S was fused to N-terminal of FTL_GG-AP1S (designed binder, One monomer is given; it assembles into a 24-mer ferritin cage., Expressed from pET28a(+) via NdeI/XhoI and purified on Ni-NTA (His tag); also called ferritin having two inserted AP1 peptides; not shown: His tag from the pET28a(+) vector (Ni-NTA purification)) MRKRLDRNGGGSGMSSQIRQNYSTDVEAAVNSLVNLYLQASYTYLSLGFYFDRDDVALEGVSHFFRELAEEKREGYERLLKMQNQRGGRALFQDIKKPAEDEWGKTPDAMKAAMALEKKLNQALLDLHALGSARTDPHLCDFLETHFLDEEVKLIKKMGDHLTNLHRGSRKRLDRNGGPEAGLGEYLFERLTLKHD | 0.0458 | 3.8e-05 | 826000 | – | 10
